Data as given in publication doi:10.1101/2024.05.07.593072.

Target: H-2Kb MHC class 1 molecule on RMA-S cells (mouse (endogenous in RMA-S))
Test: peptide-induced MHC stabilisation assay

Substance: OVA peptide (SIINFEKL) synthesized with PCR-IVTT reaction
- H-2Kb-positive cells: 55.3%
